The labels stand for the following.
B1: Azoarcus group I ribozyme (parent)
chain: GUGCCUUGCGCCGGGAAACCACGCAAGGGAUGGUGUCAAAUUCGGCGAAACCUAAGCGCCCGCCCGGGCGUAUGGCAACGCCGAGCCAAGCUUCGGCGCCUGCGCCGAUGAAGGUGUAGAGACUAGACGGCACCCACCUAAGGCAAACGCUAUGGUGAAGGCAUAGUCCAGGGAGUGGCGAAAGUCACACAAACCGG

The series covers variants of B1. The series can be described thus: reverse-splicing fitness (ratio to wild type); higher = more active; in vitro selection; Mg2+ level not given. The gist of the method:
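An in vitro group I ribozyme library with randomized positions was T7-transcribed and gel-purified. In triplicate, 10 pmol RNA in EPPS pH 7.5 was reacted with 50 pmoles of a 30-nt RNA substrate for 1 h at 37 °C across several added MgCl2 levels (1–48 mM), then stopped with EDTA. Products were reverse transcribed from a substrate-complementary primer, PCR-amplified and sequenced (HiSeq 4000). Fitness is a variant's read proportion after selection over that before, normalised to wild type.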
On to A111U C169U, for which the reverse-splicing fitness was 0.103.
With A111U C169A, the reverse-splicing fitness stood at 0.0292.
In the case of C82U A111C A120G A145U C150G C169G, the reverse-splicing fitness worked out at 0.00689.
For the variant C82G A111U A120G A145C C150G U176C, the reverse-splicing fitness stood at 0.0105.
On to C82A A111U A120C A145G C169A U176A, for which the reverse-splicing fitness was 0.0312.
The result for A111U A120C A145U C169G U176C reads 0.00915; that for A120C A145C C150G C169G, 0.00786.
C82A A111G A145C C150U C169U U176G: the reverse-splicing fitness was 0.0052.
Take A111U A145C C150G C169G U176G: the reverse-splicing fitness was 0.00549.
Consider C82U A111U A120C A145C C150G C169U U176C, for which the reverse-splicing fitness worked out at 0.0116.
For C82U A111U A145C C150U U176C, the reverse-splicing fitness came out at 0.038.
For the variant A111U A120U A145U C169G U176G, the reverse-splicing fitness was determined as 0.00201.
Turning to C82G A111U A120U A145U C150G C169A U176A, the reverse-splicing fitness was 0.00343.
Turning to A111C A120U A145G C150G C169U U176G, the reverse-splicing fitness turned out to be 0.00436.
With C82A A120G A145U C150A C169A U176A, the reverse-splicing fitness stood at 0.0132.
On to C82G A111G A120U A145U C150U C169A U176A, for which the reverse-splicing fitness came to 0.00294.
For C82A A111C A120U A145U C150G C169A U176G, the reverse-splicing fitness is 0.00338.
With C82U A111U A120C A145C C150A C169A, the reverse-splicing fitness was found to be 0.00749.
On to A120U U176C, for which the reverse-splicing fitness was 0.678.
As for C82U A111U A120U A145U C150U C169U U176G, the reverse-splicing fitness was 0.00227.
The result for C82G A111C A120U A145C C150G C169A U176A reads 0.00295; that for C82A A111C A145U U176A, 0.073.
On to C82A A111C A145G C150G C169U U176A, for which the reverse-splicing fitness is 0.0112.
To A120G A145C C150U U176A belongs 0.0853; to C82A A111C A120U A145U C150A U176A, 0.00477; to C82A A111G A120U A145U C150U C169A U176C, 0.00235.
Turning to C82U A111G A120C A145U C150A U176G, the reverse-splicing fitness is 0.0049.
C82G A111C A145U C169A U176G: the reverse-splicing fitness turned out to be 0.00775.
For the variant A111U A120G C169A U176G, the reverse-splicing fitness was determined as 0.00454.
On to C82U A111U A120C A145C C150A C169A U176G, for which the reverse-splicing fitness worked out at 0.00538.
For C82U A111G A120G C150G C169U U176G, the reverse-splicing fitness came to 0.00601.
To C82G A111C A120U A145U C150G C169A U176C belongs 0.00308; to C82A A111U A120G A145C C150G C169U U176G, 0.00584; to A111U A120G A145C U176C, 0.0455.
Turning to C82G A111G A120U A145C C150G C169A U176C, the reverse-splicing fitness was 0.00236.
The result for A120G A145G C150U U176C reads 0.212.
On to C82G A111G A120C C150A C169G U176A, for which the reverse-splicing fitness came to 0.0218.
On to A111C A120U C150G C169A U176C, for which the reverse-splicing fitness is 0.00504.
In the case of C82U A111U A120C A145G C150U C169G, the reverse-splicing fitness was 0.00811.
To C82U A111G A120U C169U U176A belongs 0.00282; to C82U A111C A120C A145G C150A C169U U176G, 0.00639.
Consider A111U A120C A145C C150G C169G U176A, for which the reverse-splicing fitness is 0.00898.
Take C82G A111G A120G A145U C150A C169U U176A: the reverse-splicing fitness is 0.0196.
Consider C82A A111U A120G A145U C150A C169U, for which the reverse-splicing fitness was 0.0069.
Consider C82G A111U A120U A145U U176G, for which the reverse-splicing fitness was found to be 0.00425.
C82G A111C A120U A145G C169A U176A: the reverse-splicing fitness was found to be 0.00424.
For the variant C82U A111U A120C A145C C169U, the reverse-splicing fitness was 0.011.
The result for A111C A120C A145U C150G C169A reads 0.00797; that for C82U A111C A120C C150U C169A U176A, 0.0151; that for A111U A120U A145G C150U C169A U176A, 0.00497.
The result for C82G A111U A120C A145U C169A reads 0.00897; that for A111G A120U A145U C150G C169G U176C, 0.00268; that for C82A A120U A145G C150G C169A U176C, 0.0082.
Consider C82U A111U A120G A145U C150A U176A, for which the reverse-splicing fitness amounted to 0.0096.
For the variant C82A A111U A120C A145G C150A C169U U176C, the reverse-splicing fitness came out at 0.0176.
The result for C82A A111G A120G A145U C169A reads 0.00824; that for A111G A120U A145G C150U C169G, 0.0623.
For the variant A120G A145U C150A C169U, the reverse-splicing fitness is 0.0677.
On to A111U A120U A145G C169G U176C, for which the reverse-splicing fitness worked out at 0.00918.
In the case of C82G A111C A145U C150A C169G U176A, the reverse-splicing fitness was 0.0157.
With C82A C150G C169G, the reverse-splicing fitness worked out at 0.00738.
With C82G C150U C169U U176G, the reverse-splicing fitness is 0.00459.
To C82G A145U C150A belongs 0.0405.
On to C82A A111U A120C A145G C150A C169G U176A, for which the reverse-splicing fitness turned out to be 0.0204.
The result for C82U A111C A120G A145U C150G U176A reads 0.00768; that for C82U A111C A120G A145U C150G U176G, 0.00282; that for A111G A120C C169A U176G, 0.00421.
To A111G U176C belongs 0.752; to C82A A111G C169U U176A, 0.0153; to C82A A120U A145G C150G C169G U176C, 0.00694.
In the case of C82A A111U A120C C150A U176A, the reverse-splicing fitness was 0.0129.
For C82U A111U A120C A145G C150G C169U U176A, the reverse-splicing fitness was determined as 0.0113.
Consider C82G A111U A120G A145C C150A C169A U176G, for which the reverse-splicing fitness came out at 0.00583.
With C82U A111C A120U C150G, the reverse-splicing fitness came to 0.00681.
With A120U A145C C150U U176C, the reverse-splicing fitness worked out at 0.222.
To A111U A120U A145C C150U U176A belongs 0.0565.
The result for A111U A120G A145G C150U C169U U176C reads 0.0447.
With C82U A111C C150G C169G U176A, the reverse-splicing fitness came to 0.00576.
Regarding C82U A120U A145G C150U C169G U176A, the reverse-splicing fitness came to 0.00433.
For the variant C82A A111U A145U C150A U176A, the reverse-splicing fitness amounted to 0.018.
C82G A111U A120G C169A U176C: the reverse-splicing fitness is 0.0215.
Turning to C82G A111C A120U A145G C150U C169A U176G, the reverse-splicing fitness came to 0.00301.
Take A111G A120U A145C C169A U176C: the reverse-splicing fitness turned out to be 0.0018.
As to C82G A111C A120C C169U U176G, the reverse-splicing fitness was determined as 0.00655.

For the origin of these results see the RNAGym collection of RNA variant scans (doi:10.1093/molbev/msab373).
